Reference: patent US20230192842A1 (published 2023)

Key:
[1] = target: T1, human CLDN3 E153A mutant on RKO KO cells (human, UniProt O15551 1-220); test: flow cytometry, 906-mAb-PE on RKO KO cells expressing the mutant
T1 construct: Single-point alanine mutant, monoclonal RKO KO line with GFP
T1 chain: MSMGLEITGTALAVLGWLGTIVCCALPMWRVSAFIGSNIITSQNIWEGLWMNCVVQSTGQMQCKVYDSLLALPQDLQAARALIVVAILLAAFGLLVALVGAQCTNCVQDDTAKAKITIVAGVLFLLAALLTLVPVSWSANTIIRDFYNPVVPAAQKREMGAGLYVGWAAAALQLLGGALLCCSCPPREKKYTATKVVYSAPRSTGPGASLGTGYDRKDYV
Experimental: Flow cytometry. RKO KO target cells were seeded for flow cytometry as described in previous sections. Wells were topped up with flow buffer (PBS+2% FBS+2 mM EDTA+0.05% sodium azide) and plates were centrifuged at 300×g for 5 minutes. Supernatant was flicked off, cells were resuspended in 150 uL flow buffer. Plate was centrifuged at 300×g for 5 minutes. Supernatant was flicked off and cells were resuspended in 50 uL IgG block at 1:100 for 10 minutes at RT. Following incubation, plate was washed twice as above. Cells were resuspended in 50 uL of diluted antibodies (all a 1 in 300 dilution) in flow buffer, or flow buffer alone (unstained control). Cells were incubated for 30 minutes at RT. After incubation, plates were washed twice with 150 uL flow buffer. Cells were then resuspended in 100 uL flow buffer containing DAPI at a 1:200 concentration as a live/dead stain. Cells were run immediately on the CYTOFLEXS. Cells were acquired on fast flow rate, with a stopping condition of 10,000 live cells (based on Total>Singlets>Live).
Cell lines for analysis included RKO KO, a CLDN3 knockout (included as a negative control), RKO KO CLDN3 mutant cells (with various single-amino acid CLDN3 mutations) and RKO KO CLDN3 WT cells (positive control). RKO KO CLDN3 mutant cell lines were selected and generated as outlined in previous sections.

[2] = target: human CLDN3 Q155A mutant on RKO KO cells (human) (UniProt O15551); test: flow cytometry, % 906-mAb-PE positive of live cells
Sequence of human CLDN3 Q155A mutant on RKO KO cells (human) (O15551 whole entry Q155A): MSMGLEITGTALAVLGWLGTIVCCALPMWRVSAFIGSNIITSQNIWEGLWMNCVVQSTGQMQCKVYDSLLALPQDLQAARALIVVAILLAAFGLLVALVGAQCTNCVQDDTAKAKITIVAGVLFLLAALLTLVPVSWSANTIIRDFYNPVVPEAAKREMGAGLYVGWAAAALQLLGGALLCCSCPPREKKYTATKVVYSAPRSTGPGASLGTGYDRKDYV

[3] = target: human CLDN3 P152A mutant on RKO KO cells (human) (UniProt O15551); test: as above
Sequence of human CLDN3 P152A mutant on RKO KO cells (human) (O15551 whole entry P152A): as the sequence (O15551 whole entry Q155A) above, with P152A, A155Q counted along it

[4] = target: human CLDN3 Q43A mutant on RKO KO cells (human) (UniProt O15551); test: as above
Sequence of human CLDN3 Q43A mutant on RKO KO cells (human) (O15551 whole entry Q43A): as the sequence (O15551 whole entry Q155A) above, with Q43A, A155Q counted along it

[5] = target: human CLDN3 F34A mutant on RKO KO cells (human) (UniProt O15551); test: as above
Sequence of human CLDN3 F34A mutant on RKO KO cells (human) (O15551 whole entry F34A): as the sequence (O15551 whole entry Q155A) above, with F34A, A155Q counted along it

[6] = target: human CLDN3 K156A mutant on RKO KO cells (human) (UniProt O15551); test: as above
Sequence of human CLDN3 K156A mutant on RKO KO cells (human) (O15551 whole entry K156A): as the sequence (O15551 whole entry Q155A) above, with A155Q, K156A counted along it

[7] = target: human CLDN3 R157A mutant on RKO KO cells (human) (UniProt O15551); test: as above
Sequence of human CLDN3 R157A mutant on RKO KO cells (human) (O15551 whole entry R157A): as the sequence (O15551 whole entry Q155A) above, with A155Q, R157A counted along it

[8] = target: human CLDN3 S42A mutant on RKO KO cells (human) (UniProt O15551); test: as above
Sequence of human CLDN3 S42A mutant on RKO KO cells (human) (O15551 whole entry S42A): as the sequence (O15551 whole entry Q155A) above, with S42A, A155Q counted along it

[9] = target: human CLDN3 V150A mutant on RKO KO cells (human) (UniProt O15551); test: as above
Sequence of human CLDN3 V150A mutant on RKO KO cells (human) (O15551 whole entry V150A): as the sequence (O15551 whole entry Q155A) above, with V150A, A155Q counted along it

[10] = target: human CLDN3 I39A mutant on RKO KO cells (human) (UniProt O15551); test: as above
Sequence of human CLDN3 I39A mutant on RKO KO cells (human) (O15551 whole entry I39A): as the sequence (O15551 whole entry Q155A) above, with I39A, A155Q counted along it

[11] = target: human CLDN3 N148A mutant on RKO KO cells (human) (UniProt O15551); test: as above
Sequence of human CLDN3 N148A mutant on RKO KO cells (human) (O15551 whole entry N148A): as the sequence (O15551 whole entry Q155A) above, with N148A, A155Q counted along it

[12] = target: human CLDN3 P149A mutant on RKO KO cells (human) (UniProt O15551); test: as above
Sequence of human CLDN3 P149A mutant on RKO KO cells (human) (O15551 whole entry P149A): as the sequence (O15551 whole entry Q155A) above, with P149A, A155Q counted along it

[13] = target: human CLDN3 I45A mutant on RKO KO cells (human) (UniProt O15551); test: as above
Sequence of human CLDN3 I45A mutant on RKO KO cells (human) (O15551 whole entry I45A): as the sequence (O15551 whole entry Q155A) above, with I45A, A155Q counted along it

[14] = target: human CLDN3 Q155A mutant on RKO KO cells (human) (UniProt O15551); test: flow cytometry, 906-mAb-PE on RKO KO cells expressing the mutant
[15] = target: human CLDN3 P152A mutant on RKO KO cells (human) (UniProt O15551); test: as above
[16] = target: human CLDN3 Q43A mutant on RKO KO cells (human) (UniProt O15551); test: as above
[17] = target: human CLDN3 F34A mutant on RKO KO cells (human) (UniProt O15551); test: as above
[18] = target: human CLDN3 K156A mutant on RKO KO cells (human) (UniProt O15551); test: as above
[19] = target: human CLDN3 R157A mutant on RKO KO cells (human) (UniProt O15551); test: as above
[20] = target: human CLDN3 S42A mutant on RKO KO cells (human) (UniProt O15551); test: as above
[21] = target: human CLDN3 V150A mutant on RKO KO cells (human) (UniProt O15551); test: as above
[22] = target: human CLDN3 I39A mutant on RKO KO cells (human) (UniProt O15551); test: as above
[23] = target: human CLDN3 N148A mutant on RKO KO cells (human) (UniProt O15551); test: as above
[24] = target: human CLDN3 P149A mutant on RKO KO cells (human) (UniProt O15551); test: as above
[25] = target: human CLDN3 I45A mutant on RKO KO cells (human) (UniProt O15551); test: as above

B1: 906-mAb (anti-CLDN3 906-mAb, monoclonal antibody version of the scFv of 906-009_LNGFR) (antibody, V domains shown)
VH: QVQLVQSGAEVKKPGSSVKVSCKASGYTFTNYWVHWVRQAPGQGLEWMGRIEPNSSGSQYNEKFKNRVTITADKSTSTAYMELSSLRSEDTAVYYCARGVMVPLDYWGQGTLVTVSS
VL: DIQMTQSPSSLSASVGDRVTITCKASQDINRYIAWYQQKPGKAPKLLIHYTSTLQPGVPSRFSGSGSGTDFTLTISSLQPEDFATYYCLQYETLYSFGQGTKLEIK
binding result [1]: no binding
Change in % Parent (906-mAb-PE positive cells) vs CLDN3 WT [2]: 0.1%
Change in % Parent (906-mAb-PE positive cells) vs CLDN3 WT [3]: 0.1%
Change in % Parent (906-mAb-PE positive cells) vs CLDN3 WT [4]: 0.1%
Change in % Parent (906-mAb-PE positive cells) vs CLDN3 WT [5]: -0.95%
Change in % Parent (906-mAb-PE positive cells) vs CLDN3 WT [6]: 0.05%
Change in % Parent (906-mAb-PE positive cells) vs CLDN3 WT [7]: 0.1%
Change in % Parent (906-mAb-PE positive cells) vs CLDN3 WT [8]: 0.1%
Change in % Parent (906-mAb-PE positive cells) vs CLDN3 WT [9]: 0%
Change in % Parent (906-mAb-PE positive cells) vs CLDN3 WT [10]: 0.1%
Change in % Parent (906-mAb-PE positive cells) vs CLDN3 WT [11]: 0.1%
Change in % Parent (906-mAb-PE positive cells) vs CLDN3 WT [12]: 0.1%
Change in % Parent (906-mAb-PE positive cells) vs CLDN3 WT [13]: 0.05%
fold change MFI vs CLDN3 WT (fold vs CLDN3 WT) [14]: 3.4
fold change MFI vs CLDN3 WT (fold vs CLDN3 WT) [15]: 5.07
fold change MFI vs CLDN3 WT (fold vs CLDN3 WT) [16]: 2.68
fold change MFI vs CLDN3 WT (fold vs CLDN3 WT) [17]: 0.4
fold change MFI vs CLDN3 WT (fold vs CLDN3 WT) [18]: 0.73
fold change MFI vs CLDN3 WT (fold vs CLDN3 WT) [19]: 1.31
fold change MFI vs CLDN3 WT (fold vs CLDN3 WT) [20]: 3.91
fold change MFI vs CLDN3 WT (fold vs CLDN3 WT) [21]: 2.98
fold change MFI vs CLDN3 WT (fold vs CLDN3 WT) [22]: 0.95
fold change MFI vs CLDN3 WT (fold vs CLDN3 WT) [23]: 2.75
fold change MFI vs CLDN3 WT (fold vs CLDN3 WT) [24]: 2.03
fold change MFI vs CLDN3 WT (fold vs CLDN3 WT) [25]: 3.17
